One experiment deals with Human CD3 (recombinant) (human). The experiment can be described thus: SPR, CD3 amine-coupled, variant as analyte, 1:1 model.
Experiment [1] addresses T1, Human PD-L1 (human, UniProt Q9NZQ7 19-239).
T1 construct: Amine-coupled to a CM5 chip for SPR; also called recombinant human PD-L1
The experiment can be described thus: SPR, PD-L1 amine-coupled, variant as analyte, 1:1 model; third of three variants in the merged cell (G1 4-1 PD-1).

For a further experiment, the target named is PD-L1 on cells (UniProt Q9NZQ7 19-290, limits assumed). The experiment can be described thus: cell-based or functional assay.
The next experiment concerns the target T2, Human PD-L2 (human, UniProt Q9BQ51 20-219).
T2 construct: Amine-coupled to a CM5 chip for SPR; also called recombinant PD-L2
T2 sequence (looked up): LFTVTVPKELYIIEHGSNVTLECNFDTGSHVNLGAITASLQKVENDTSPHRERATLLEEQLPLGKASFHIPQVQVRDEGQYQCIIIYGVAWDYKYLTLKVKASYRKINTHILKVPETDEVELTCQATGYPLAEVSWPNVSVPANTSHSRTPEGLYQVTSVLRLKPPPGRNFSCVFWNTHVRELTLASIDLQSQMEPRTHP
In words: SPR, PD-L2 amine-coupled, variant as analyte, 1:1 model.

The target of experiment [2] is T1, Human PD-L1. In words: SPR, PD-L1 amine-coupled, variant as analyte, 1:1 model.
The target of experiment [3] is T1, Human PD-L1. The description is as above. The source holds these as a separate data set.
Experiment [4] addresses T1, Human PD-L1. In words: SPR, PD-L1 amine-coupled, variant as analyte.
The target in the next experiment is T3, Human CLDN18.1 (human, UniProt P56856 1-261).
T3 construct: On transfected HEK293-6E cells
In words: flow cytometry, purified construct on transfected HEK293-6E cells.

The next experiment concerns the target T4, Cynomolgus monkey CLDN18 (cynomolgus monkey).
T4 construct: On transfected HEK293-6E cells; also called Cyno CLDN18; cynomologus monkey CLDN18.2 ortholog
T4 chain: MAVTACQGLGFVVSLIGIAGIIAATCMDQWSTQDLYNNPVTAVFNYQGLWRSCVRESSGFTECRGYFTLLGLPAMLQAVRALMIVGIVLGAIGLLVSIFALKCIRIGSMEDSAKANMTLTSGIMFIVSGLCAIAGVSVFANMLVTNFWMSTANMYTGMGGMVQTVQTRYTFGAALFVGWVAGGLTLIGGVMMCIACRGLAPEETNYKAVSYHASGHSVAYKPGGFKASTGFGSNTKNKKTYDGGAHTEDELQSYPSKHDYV
In words: FACS on transfected HEK293-6E cells, 4 parameter logistic fit.

Another experiment addresses T5, Mouse CLDN18 A2.1 (mouse, UniProt P56857 10-264).
T5 construct: On transfected HEK293-6E cells; also called Mouse CLDN18 2.1; mouse CLDN18.2 ortholog
T5 chain: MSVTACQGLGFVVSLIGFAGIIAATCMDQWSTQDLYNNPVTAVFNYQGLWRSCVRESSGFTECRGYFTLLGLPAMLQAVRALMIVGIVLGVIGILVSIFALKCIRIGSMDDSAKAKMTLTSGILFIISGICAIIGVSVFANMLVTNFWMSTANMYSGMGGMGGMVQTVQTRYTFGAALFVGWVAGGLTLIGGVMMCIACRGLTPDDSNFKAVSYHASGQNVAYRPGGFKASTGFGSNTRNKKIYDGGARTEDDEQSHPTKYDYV
The description is as above.

The target in another experiment is T6, Human CLDN18.2 (human).
T6 construct: On transfected HEK293-6E cells; also called Claudin18.2
Described as above.

T1 sequence (Q9NZQ7 19-239 limits assumed): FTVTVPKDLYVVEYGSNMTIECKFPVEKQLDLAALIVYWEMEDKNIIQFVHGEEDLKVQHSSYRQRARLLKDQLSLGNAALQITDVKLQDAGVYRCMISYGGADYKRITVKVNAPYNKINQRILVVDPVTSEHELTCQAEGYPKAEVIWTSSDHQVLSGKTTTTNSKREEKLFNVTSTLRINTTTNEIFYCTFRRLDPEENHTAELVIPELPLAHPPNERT
Human CD3 (recombinant) (human), sequence (chain, as listed by the source): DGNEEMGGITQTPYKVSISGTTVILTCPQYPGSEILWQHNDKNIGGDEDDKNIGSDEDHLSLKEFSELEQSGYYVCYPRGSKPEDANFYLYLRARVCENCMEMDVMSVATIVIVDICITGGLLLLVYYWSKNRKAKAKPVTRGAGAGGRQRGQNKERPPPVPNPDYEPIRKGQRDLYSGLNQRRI
T3 sequence (P56856 whole entry): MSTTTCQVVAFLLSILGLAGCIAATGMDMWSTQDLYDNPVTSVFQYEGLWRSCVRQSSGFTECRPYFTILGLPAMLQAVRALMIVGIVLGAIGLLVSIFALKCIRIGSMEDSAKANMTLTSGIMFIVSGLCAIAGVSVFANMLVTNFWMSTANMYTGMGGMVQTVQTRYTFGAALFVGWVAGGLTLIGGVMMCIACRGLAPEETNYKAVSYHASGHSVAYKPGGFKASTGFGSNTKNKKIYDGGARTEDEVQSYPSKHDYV
PD-L1 on cells, sequence (Q9NZQ7 19-290 limits assumed): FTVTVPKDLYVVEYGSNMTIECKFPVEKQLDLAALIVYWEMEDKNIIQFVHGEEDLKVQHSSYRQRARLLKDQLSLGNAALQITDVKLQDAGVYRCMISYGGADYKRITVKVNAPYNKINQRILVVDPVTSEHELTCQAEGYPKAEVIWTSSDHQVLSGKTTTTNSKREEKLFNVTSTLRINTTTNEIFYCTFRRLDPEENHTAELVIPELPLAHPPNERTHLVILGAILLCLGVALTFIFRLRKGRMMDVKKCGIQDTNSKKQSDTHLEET

B1: v38737 (other)
heavy 1: EVQLVESGGGLVQPGGSLRLSCAASGVTFNYYGMSWIRQAPGKGLEWVASITSSGGRIYYPDSVKGRFTISRENTQKTLYLQMNSLRAEDTAVYYCTLDGRDGWVAYWGQGTLVTVSSASTKGPSVFPLAPSSKSTSGGTAALGCLVKDYFPEPVTVSWNSGALTSGVHTFPAVLQSSGLYSLSSVVTVPSSSLGTQTYICNVNHKPSNTKVDKKVEPKSCDKTHTCPPCPAPEAAGGPSVFLFPPKPKDTLMISRTPEVTCVVVSVSHEDPEVKFNWYVDGVEVHNAKTKPREEQYNSTYRVVSVLTVLHQDWLNGKEYKCKVSNKALPAPIEKTISKAKGQPREPQVYVYPPSRDELTKNQVSLTCLVKGFYPSDIAVEWESNGQPENNYKTTPPVLDSDGSFALVSKLTVDKSRWQQGNVFSCSVMHEALHNHYTQKSLSLSPGGGGGSGDRPWNPPTFSPALLVVTEGDNATFTCSFSNTSESFRLVWHRESPGYETDTLASFPEDRSTPLPDARFRVTQLPNGRDFHMSVVRARRNDSGTYVCGAIAFHPVIQIKESLRAELRVTE
light: NFMLTQPHSVSESPGKTVTISCKRNTGNIGSNYVNWYQQHEGSSPTTIIYRNDKRPDGVSDRFSGSIDRSSKSASLTISNLKTEDEADYFCQSYSSGFIFGGGTKLTVLGQPKAAPSVTLFPPSSEELQANKATLVCLISDFYPGAVTVAWKADSSPVKAGVETTTPSKQSNNKYAASSYLSLTPEQWKSHRSYSCQVTHEGSTVEKTVAPTECS
heavy 2: QVQLVESGGGLVQPGGSLRLSCSVSGIDLSSNPMIWVRQAPGKGLQYIGIIDTDGSTYYADWAKGRFTISKDSTTVYLQINSPRAEDTAVYYCARRLHGSSNGYYDDLWGQGTLVTVSSGGGGSGGGGSGGGGSGGGGSDGQMTQSPSSVSASVGDRVTITCQASQSIYSYLSWYQQKPGQRPKLLIYKASTLASGVPSRFSGSGSGTDFTLTISSVQPEDFATYYCQQGYTVTNVDKNTFGGGTKVEIKAAEPKSSDKTHTCPPCPAPEAAGGPSVFLFPPKPKDTLMISRTPEVTCVVVSVSHEDPEVKFNWYVDGVEVHNAKTKPREEQYNSTYRVVSVLTVLHQDWLNGKEYKCKVSNKALPAPIEKTISKAKGQPREPQVYVLPPSRDELTKNQVSLLCLVKGFYPSDIAVEWESNGQPENNYLTWPPVLDSDGSFFLYSKLTVDKSRWQQGNVFSCSVMHEALHNHYTQKSLSLSPG
For B1, the Kd in the experiment with Human CD3 (recombinant) was found to be 3.5 nM; with Human PD-L1 [1] it was 280 nM. Besides, the “EC50 (read off the curve); hybrid PD-1/PD-L1 reporter gene assay, delta RLU, PD-1+ Jurkat T cells with SNU-620 cells, top left graph; composite signal of CD3 engagement and PD-1:PD-L1 blockade” value with PD-L1 on cells was ~500 pM.

B2: v38739 (other)
heavy 1: EVQLVESGGGLVQPGGSLRLSCAASGVTFNYYGMSWIRQAPGKGLEWVASITSSGGRIYYPDSVKGRFTISRENTQKTLYLQMNSLRAEDTAVYYCTLDGRDGWVAYWGQGTLVTVSSASTKGPSVFPLAPSSKSTSGGTAALGCLVKDYFPEPVTVSWNSGALTSGVHTFPAVLQSSGLYSLSSVVTVPSSSLGTQTYICNVNHKPSNTKVDKKVEPKSCDKTHTCPPCPAPEAAGGPSVFLFPPKPKDTLMISRTPEVTCVVVSVSHEDPEVKFNWYVDGVEVHNAKTKPREEQYNSTYRVVSVLTVLHQDWLNGKEYKCKVSNKALPAPIEKTISKAKGQPREPQVYVYPPSRDELTKNQVSLTCLVKGFYPSDIAVEWESNGQPENNYKTTPPVLDSDGSFALVSKLTVDKSRWQQGNVFSCSVMHEALHNHYTQKSLSLSPGGGGGSGDRPWNPPTFSPALLVVTEGDNATFTCSFSNTSESFVLNWYRMSPSNQTDKLAAFPEDRSQPGQDARFRVTQLPNGRDFHMSVVRARRNDSGTYLCGAISLAPKLQIKESLRAELRVTE
light: NFMLTQPHSVSESPGKTVTISCKRNTGNIGSNYVNWYQQHEGSSPTTIIYRNDKRPDGVSDRFSGSIDRSSKSASLTISNLKTEDEADYFCQSYSSGFIFGGGTKLTVLGQPKAAPSVTLFPPSSEELQANKATLVCLISDFYPGAVTVAWKADSSPVKAGVETTTPSKQSNNKYAASSYLSLTPEQWKSHRSYSCQVTHEGSTVEKTVAPTECS
heavy 2: QVQLVESGGGLVQPGGSLRLSCSVSGIDLSSNPMIWVRQAPGKGLQYIGIIDTDGSTYYADWAKGRFTISKDSTTVYLQINSPRAEDTAVYYCARRLHGSSNGYYDDLWGQGTLVTVSSGGGGSGGGGSGGGGSGGGGSDGQMTQSPSSVSASVGDRVTITCQASQSIYSYLSWYQQKPGQRPKLLIYKASTLASGVPSRFSGSGSGTDFTLTISSVQPEDFATYYCQQGYTVTNVDKNTFGGGTKVEIKAAEPKSSDKTHTCPPCPAPEAAGGPSVFLFPPKPKDTLMISRTPEVTCVVVSVSHEDPEVKFNWYVDGVEVHNAKTKPREEQYNSTYRVVSVLTVLHQDWLNGKEYKCKVSNKALPAPIEKTISKAKGQPREPQVYVLPPSRDELTKNQVSLLCLVKGFYPSDIAVEWESNGQPENNYLTWPPVLDSDGSFFLYSKLTVDKSRWQQGNVFSCSVMHEALHNHYTQKSLSLSPG
In the case of B2, the Kd is 39 nM in the experiment with Human CD3 (recombinant), 230 nM with Human PD-L2, 110 nM with Human PD-L1 [2] and 310 nM with Human PD-L1 [3].

B3: v38426 (other)
heavy 1: EVQLVESGGGLVQPGGSLRLSCAASGVTFNYYGMSWIRQAPGKGLEWVASITSSGGRIYYPDSVKGRFTISRENTQKTLYLQMNSLRAEDTAVYYCTLDGRDGWVAYWGQGTLVTVSSASTKGPSVFPLAPSSKSTSGGTAALGCLVKDYFPEPVTVSWNSGALTSGVHTFPAVLQSSGLYSLSSVVTVPSSSLGTQTYICNVNHKPSNTKVDKKVEPKSCDKTHTCPPCPAPEAAGGPSVFLFPPKPKDTLMISRTPEVTCVVVSVSHEDPEVKFNWYVDGVEVHNAKTKPREEQYNSTYRVVSVLTVLHQDWLNGKEYKCKVSNKALPAPIEKTISKAKGQPREPQVYVYPPSRDELTKNQVSLTCLVKGFYPSDIAVEWESNGQPENNYKTTPPVLDSDGSFALVSKLTVDKSRWQQGNVFSCSVMHEALHNHYTQKSLSLSPGGGGGSGQVQLVESGGGLVQPGGSLRLSCSVSGIDLSSNPMIWVRQAPGKGLQYIGIIDTDGSTYYADWAKGRFTISKDSTTVYLQINSPRAEDTAVYYCARRLHGSSNGYYDDLWGQGTLVTVSSGGGGSGGGGSGGGGSGGGGSDGQMTQSPSSVSASVGDRVTITCQASQSIYSYLSWYQQKPGQRPKLLIYKASTLASGVPSRFSGSGSGTDFTLTISSVQPEDFATYYCQQGYTVTNVDKNTFGGGTKVEIK
light: NPPTFSPALLVVTEGDNATFTCSFSNTSESFVLNWYRMSPSNQTDALAAFPEDRSQPGQDARFRVTQLPNGRDFHMSVVRARRNDSGTYLCGAASLAPKAQIKESLRAELRVTEGGGGSGNFMLTQPHSVSESPGKTVTISCKRNTGNIGSNYVNWYQQHEGSSPTTIIYRNDKRPDGVSDRFSGSIDRSSKSASLTISNLKTEDEADYFCQSYSSGFIFGGGTKLTVLGQPKAAPSVTLFPPSSEELQANKATLVCLISDFYPGAVTVAWKADSSPVKAGVETTTPSKQSNNKYAASSYLSLTPEQWKSHRSYSCQVTHEGSTVEKTVAPTECS
heavy 2: QVQLVESGGGLVQPGGSLRLSCSVSGIDLSSNPMIWVRQAPGKGLQYIGIIDTDGSTYYADWAKGRFTISKDSTTVYLQINSPRAEDTAVYYCARRLHGSSNGYYDDLWGQGTLVTVSSGGGGSGGGGSGGGGSGGGGSDGQMTQSPSSVSASVGDRVTITCQASQSIYSYLSWYQQKPGQRPKLLIYKASTLASGVPSRFSGSGSGTDFTLTISSVQPEDFATYYCQQGYTVTNVDKNTFGGGTKVEIKAAEPKSSDKTHTCPPCPAPEAAGGPSVFLFPPKPKDTLMISRTPEVTCVVVSVSHEDPEVKFNWYVDGVEVHNAKTKPREEQYNSTYRVVSVLTVLHQDWLNGKEYKCKVSNKALPAPIEKTISKAKGQPREPQVYVLPPSRDELTKNQVSLLCLVKGFYPSDIAVEWESNGQPENNYLTWPPVLDSDGSFFLYSKLTVDKSRWQQGNVFSCSVMHEALHNHYTQKSLSLSPG
notes: CD3 Fab with C-term Cldn18.2 scFv x Cldn18.2 scFv Fc with attenuated (KO) PD-1 attached to CD3 LC (N-term)
As to B3, the Kd with Human CD3 (recombinant) is 77 nM. The binding result with Human PD-L1 [4] is “no binding”.

B4: v35777 (antibody, human IgG1, V domains shown)
VH: QSLEESGGRLVTPGTPLTLTCTVSGIDLSSNPMIWVRQAPGKGLQYIGIIDTDGSTYYASWAKGRFTGSKTSTTVDLKITSPTTEDTATYFCARRLHGSSNGYYDDLWGQGTLVTISS
VL: DGVMTQTPSSVSAAVGGTVTIKCQASQSIYSYLSWYQQKPGQRPKLLIYKASTLASGVPSRFKGSGSGTEFTLTISGVQCDDAATYYCQQGYTVTNVDKNTFGGGTEVVVK
notes: Rabbit variable regions on human IgG1 (constant region starts at alanine Kabat-114) and human C kappa (starts at arginine Kabat-108); also called parental rabbit chimeric; rabbit-human chimeric IgG1/kappa antibody construct
For B4, in the experiment with Human CLDN18.1, the binding result was “no binding”. The Bmax came to 1660 in the experiment with Cynomolgus monkey CLDN18, 1640 with Mouse CLDN18 A2.1 and 2070 in the experiment with Human CLDN18.2. Moreover, the EC50 came out at 0.48 nM with Cynomolgus monkey CLDN18, 0.87 nM with Mouse CLDN18 A2.1 and 1.29 nM in the experiment with Human CLDN18.2.

Source of the values: patent US20250019440A1 (Zymeworks, published 2025).
